Results from patent US12173330B2, “Method for producing hydroxy-L-pipecolic acid” (API CORPORATION, priority 2015, dated 2024).

How the values were obtained:
O=C(O)[C@@H]1CCCCN1 = test: purified protein, by the assay type
O=C(O)[C@@H]1CCCN1 = test: purified protein, by the assay type; details: other: substrate: L-proline, 20 mmol/L 2-oxoglutaric acid, 30° C.
[1] = other: substrate: L-pipecolic acid, 20 mmol/L 2-oxoglutaric acid, 30° C.

Colletotrichum gloeosporioides Nara qc5 L-pipecolic acid trans-4-hydroxylase CgPH, SEQ ID NO: 12 (Colletotrichum fructicola Nara gc5)
Km (O=C(O)[C@@H]1CCCCN1; [1]): 8560 µM

Gibberella zeae PH-1 L-pipecolic acid trans-4-hydroxylase GzPH, SEQ ID NO: 16 (Fusarium graminearum PH-1)
Km (O=C(O)[C@@H]1CCCCN1; 30.0 °C): 4720 µM

Segniliparus rugosus ATCC BAA-974 L-pipecolic acid cis-5-hydroxylase SruPH, SEQ ID NO: 4 (Segniliparus rugosus ATCC BAA-974)
Km (O=C(O)[C@@H]1CCCCN1; [1]): 1090 µM
Km (O=C(O)[C@@H]1CCCN1): 400 µM
